Source: the supplement of paper PMC10065799, “High-throughput profiling of sequence recognition by tyrosine kinases and SH2 domains using bacterial peptide display” (eLife, 2023)

Experiments:
c-Abl (mouse) = assay: phosphorylation enrichment, bacterial display (enrichment ratio); higher = better substrate or ligand; peptides without Tyr show the background
Hck = Hck (UniProt P08631); assay: as above
AncSZ = assay: as above
Fyn = Fyn (UniProt P06241); assay: as above
FGFR1 = FGFR1 (UniProt P11362); assay: as above
Sequence of FGFR1 (P11362 whole entry, looked up): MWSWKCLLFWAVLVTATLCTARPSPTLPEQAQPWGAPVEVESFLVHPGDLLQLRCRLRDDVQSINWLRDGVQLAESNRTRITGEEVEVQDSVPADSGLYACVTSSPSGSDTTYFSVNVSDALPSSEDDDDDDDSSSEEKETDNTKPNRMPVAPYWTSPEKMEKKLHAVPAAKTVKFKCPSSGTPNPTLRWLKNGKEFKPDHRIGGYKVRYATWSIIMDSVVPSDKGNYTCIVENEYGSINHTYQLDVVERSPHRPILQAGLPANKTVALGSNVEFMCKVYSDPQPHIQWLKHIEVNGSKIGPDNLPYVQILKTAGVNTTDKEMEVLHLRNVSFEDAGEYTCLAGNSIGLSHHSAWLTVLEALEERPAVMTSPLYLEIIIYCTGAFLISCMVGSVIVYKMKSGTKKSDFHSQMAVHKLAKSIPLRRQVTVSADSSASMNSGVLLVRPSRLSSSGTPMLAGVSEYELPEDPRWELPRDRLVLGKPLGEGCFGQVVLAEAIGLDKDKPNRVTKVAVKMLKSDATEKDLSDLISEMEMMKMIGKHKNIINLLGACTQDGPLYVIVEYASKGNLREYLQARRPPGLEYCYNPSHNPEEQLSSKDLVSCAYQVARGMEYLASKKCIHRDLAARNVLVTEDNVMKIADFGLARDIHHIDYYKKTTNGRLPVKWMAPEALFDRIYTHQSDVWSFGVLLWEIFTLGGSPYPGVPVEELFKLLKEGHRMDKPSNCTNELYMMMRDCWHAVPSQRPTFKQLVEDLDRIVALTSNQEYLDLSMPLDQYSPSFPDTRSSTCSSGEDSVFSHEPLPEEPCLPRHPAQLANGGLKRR

FGFR3 = FGFR3 (UniProt P22607); assay: as above
Sequence of FGFR3 (P22607 whole entry, looked up): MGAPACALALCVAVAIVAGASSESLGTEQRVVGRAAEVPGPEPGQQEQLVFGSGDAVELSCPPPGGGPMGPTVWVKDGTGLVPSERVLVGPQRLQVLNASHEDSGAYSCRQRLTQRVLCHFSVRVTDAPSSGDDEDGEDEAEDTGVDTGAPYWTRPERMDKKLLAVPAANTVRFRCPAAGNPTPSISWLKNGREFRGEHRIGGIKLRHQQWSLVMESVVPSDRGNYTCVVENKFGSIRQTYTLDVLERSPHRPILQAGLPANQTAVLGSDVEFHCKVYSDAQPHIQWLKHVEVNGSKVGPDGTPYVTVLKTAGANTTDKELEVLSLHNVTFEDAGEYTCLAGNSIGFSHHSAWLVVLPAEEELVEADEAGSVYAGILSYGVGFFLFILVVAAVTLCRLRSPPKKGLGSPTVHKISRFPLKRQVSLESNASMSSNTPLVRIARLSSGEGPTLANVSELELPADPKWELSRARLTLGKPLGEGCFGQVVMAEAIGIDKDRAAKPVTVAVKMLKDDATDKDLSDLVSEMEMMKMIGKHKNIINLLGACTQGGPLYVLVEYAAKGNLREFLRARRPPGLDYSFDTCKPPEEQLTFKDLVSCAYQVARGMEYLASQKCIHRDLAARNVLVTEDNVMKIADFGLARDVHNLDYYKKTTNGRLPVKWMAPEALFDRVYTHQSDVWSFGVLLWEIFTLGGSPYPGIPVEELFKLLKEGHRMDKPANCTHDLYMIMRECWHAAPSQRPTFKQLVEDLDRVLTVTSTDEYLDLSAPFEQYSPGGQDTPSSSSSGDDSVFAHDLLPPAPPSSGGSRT

MERTK = MERTK (UniProt Q12866); assay: as above
Sequence of MERTK (Q12866 whole entry, looked up): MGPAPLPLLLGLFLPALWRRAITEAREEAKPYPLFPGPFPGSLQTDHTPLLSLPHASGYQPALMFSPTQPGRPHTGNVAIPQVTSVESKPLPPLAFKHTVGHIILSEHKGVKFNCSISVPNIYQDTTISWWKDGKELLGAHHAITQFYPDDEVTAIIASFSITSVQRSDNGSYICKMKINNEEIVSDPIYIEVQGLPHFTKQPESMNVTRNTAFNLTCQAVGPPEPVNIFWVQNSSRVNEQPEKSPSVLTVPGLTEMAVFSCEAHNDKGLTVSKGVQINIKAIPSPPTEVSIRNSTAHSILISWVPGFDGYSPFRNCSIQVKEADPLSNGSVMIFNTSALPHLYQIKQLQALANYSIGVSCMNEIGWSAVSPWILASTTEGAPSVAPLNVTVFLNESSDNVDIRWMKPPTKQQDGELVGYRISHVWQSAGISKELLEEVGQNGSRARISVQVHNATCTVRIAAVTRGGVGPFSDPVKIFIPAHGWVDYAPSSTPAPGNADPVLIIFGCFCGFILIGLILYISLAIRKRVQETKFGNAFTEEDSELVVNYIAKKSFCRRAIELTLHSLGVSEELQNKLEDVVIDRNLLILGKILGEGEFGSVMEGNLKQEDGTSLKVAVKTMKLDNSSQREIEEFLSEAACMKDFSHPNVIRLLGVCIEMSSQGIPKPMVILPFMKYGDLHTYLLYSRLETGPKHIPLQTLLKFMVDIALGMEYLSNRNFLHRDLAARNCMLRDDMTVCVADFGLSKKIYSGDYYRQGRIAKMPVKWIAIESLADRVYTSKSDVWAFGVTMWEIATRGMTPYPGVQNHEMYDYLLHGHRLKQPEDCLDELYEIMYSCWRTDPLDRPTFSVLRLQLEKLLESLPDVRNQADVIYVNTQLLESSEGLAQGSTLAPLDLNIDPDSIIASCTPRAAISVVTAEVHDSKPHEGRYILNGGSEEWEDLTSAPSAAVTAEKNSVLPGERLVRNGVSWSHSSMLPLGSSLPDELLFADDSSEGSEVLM

EPHB1 = EPHB1 (UniProt P54762); assay: as above
EPHB2 = EPHB2 (UniProt P29323); assay: as above
Sequence of EPHB2 (P29323 whole entry, looked up): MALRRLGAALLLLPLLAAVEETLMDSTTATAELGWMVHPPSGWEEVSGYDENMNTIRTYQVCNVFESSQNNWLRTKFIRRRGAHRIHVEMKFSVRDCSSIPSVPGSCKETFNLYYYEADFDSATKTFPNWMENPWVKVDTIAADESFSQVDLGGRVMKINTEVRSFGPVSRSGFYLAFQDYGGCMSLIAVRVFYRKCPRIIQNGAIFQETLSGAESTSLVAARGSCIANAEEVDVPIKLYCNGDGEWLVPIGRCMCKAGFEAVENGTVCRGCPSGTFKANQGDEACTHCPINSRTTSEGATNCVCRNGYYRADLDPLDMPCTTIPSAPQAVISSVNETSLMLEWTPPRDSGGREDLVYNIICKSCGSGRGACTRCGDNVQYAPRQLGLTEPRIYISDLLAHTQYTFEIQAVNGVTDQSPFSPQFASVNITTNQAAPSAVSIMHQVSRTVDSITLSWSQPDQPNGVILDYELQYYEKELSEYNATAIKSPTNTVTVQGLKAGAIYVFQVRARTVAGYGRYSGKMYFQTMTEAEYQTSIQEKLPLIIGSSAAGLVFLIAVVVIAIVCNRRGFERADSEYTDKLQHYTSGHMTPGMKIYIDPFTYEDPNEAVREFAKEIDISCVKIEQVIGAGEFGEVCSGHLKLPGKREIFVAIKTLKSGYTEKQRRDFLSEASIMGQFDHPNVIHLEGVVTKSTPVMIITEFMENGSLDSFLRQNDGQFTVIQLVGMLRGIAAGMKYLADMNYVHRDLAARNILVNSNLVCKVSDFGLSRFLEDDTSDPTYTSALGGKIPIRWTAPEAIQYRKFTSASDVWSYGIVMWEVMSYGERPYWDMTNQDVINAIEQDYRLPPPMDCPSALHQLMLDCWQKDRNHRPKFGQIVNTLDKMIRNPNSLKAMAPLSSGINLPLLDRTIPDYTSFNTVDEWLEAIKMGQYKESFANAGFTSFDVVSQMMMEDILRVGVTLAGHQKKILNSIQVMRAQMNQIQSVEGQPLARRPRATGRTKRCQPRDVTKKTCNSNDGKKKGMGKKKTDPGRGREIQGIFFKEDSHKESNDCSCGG

Fes = Fes (UniProt P07332); assay: as above
Sequence of Fes (P07332 whole entry, looked up): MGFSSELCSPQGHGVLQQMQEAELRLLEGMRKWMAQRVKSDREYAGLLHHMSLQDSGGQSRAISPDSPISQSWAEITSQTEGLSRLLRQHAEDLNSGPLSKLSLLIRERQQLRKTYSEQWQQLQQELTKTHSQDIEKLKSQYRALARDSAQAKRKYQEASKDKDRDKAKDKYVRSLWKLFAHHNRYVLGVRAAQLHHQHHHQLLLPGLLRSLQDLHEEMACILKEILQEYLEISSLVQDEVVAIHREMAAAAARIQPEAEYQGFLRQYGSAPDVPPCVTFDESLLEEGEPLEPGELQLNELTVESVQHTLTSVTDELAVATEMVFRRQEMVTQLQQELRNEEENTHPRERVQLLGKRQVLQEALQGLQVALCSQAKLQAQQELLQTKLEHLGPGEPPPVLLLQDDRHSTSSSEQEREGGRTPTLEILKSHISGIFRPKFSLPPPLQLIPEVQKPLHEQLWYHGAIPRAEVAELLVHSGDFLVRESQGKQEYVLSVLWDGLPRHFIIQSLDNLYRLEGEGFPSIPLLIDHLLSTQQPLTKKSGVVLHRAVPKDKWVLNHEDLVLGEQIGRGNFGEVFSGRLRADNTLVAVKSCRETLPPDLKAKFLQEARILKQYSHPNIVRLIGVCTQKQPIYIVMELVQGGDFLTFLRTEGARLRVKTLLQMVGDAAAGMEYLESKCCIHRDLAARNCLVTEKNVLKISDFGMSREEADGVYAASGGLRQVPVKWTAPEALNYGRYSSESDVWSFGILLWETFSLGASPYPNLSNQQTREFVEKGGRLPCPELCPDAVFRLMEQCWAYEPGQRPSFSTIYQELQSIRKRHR

c-Src = assay: as above
Jak2 = Jak2 (UniProt O60674); assay: as above
Fer (mouse) = assay: as above
SHP2-C SH2 = assay: SH2 binding enrichment of the phosphorylated peptide, bacterial display (enrichment ratio); higher = better substrate or ligand; peptides without Tyr show the background
c-Src SH2 = assay: as above
Grb2 SH2 = Grb2 SH2 (UniProt P62993); assay: as above
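Wherever SH2 binding enrichment of the phosphorylated peptide, bacterial display is given: peptide library displayed on the E. coli surface as eCPX fusions, selected cells deep-sequenced, score is each peptide's frequency after selection divided by its frequency in the input.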
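Wherever phosphorylation enrichment, bacterial display is given: 11-residue human phosphosite peptides and single-mutation variants displayed on the E. coli surface, counted by deep sequencing, each peptide's frequency after selection divided by its frequency in the unselected input library; frequency after pTyr selection over input frequency; kinase dosed for 20-30% of maximal phosphorylation in three min.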

Sequence of Fyn (P06241 whole entry, looked up): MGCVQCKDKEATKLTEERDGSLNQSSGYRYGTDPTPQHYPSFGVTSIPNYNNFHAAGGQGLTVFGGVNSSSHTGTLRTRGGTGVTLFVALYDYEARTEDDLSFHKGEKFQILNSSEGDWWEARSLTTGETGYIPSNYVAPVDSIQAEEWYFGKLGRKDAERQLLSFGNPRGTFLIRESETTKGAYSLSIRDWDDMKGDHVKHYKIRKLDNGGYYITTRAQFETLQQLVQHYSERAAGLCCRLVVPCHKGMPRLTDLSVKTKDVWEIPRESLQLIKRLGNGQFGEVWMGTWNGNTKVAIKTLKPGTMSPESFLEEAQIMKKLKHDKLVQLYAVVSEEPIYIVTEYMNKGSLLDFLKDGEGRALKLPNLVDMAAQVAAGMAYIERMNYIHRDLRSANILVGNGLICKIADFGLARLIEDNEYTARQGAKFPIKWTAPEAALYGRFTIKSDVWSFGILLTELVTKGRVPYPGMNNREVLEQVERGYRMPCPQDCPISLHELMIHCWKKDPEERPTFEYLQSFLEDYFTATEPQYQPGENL

Sequence	SH2 binding enrichment (SHP2-C SH2)	SH2 binding enrichment (c-Src SH2)	SH2 binding enrichment (Grb2 SH2)	phosphorylation enrichment (c-Abl (mouse))	phosphorylation enrichment (Hck)	phosphorylation enrichment (AncSZ)	phosphorylation enrichment (Fyn)	phosphorylation enrichment (FGFR1)	phosphorylation enrichment (FGFR3)	phosphorylation enrichment (MERTK)	phosphorylation enrichment (EPHB1)	phosphorylation enrichment (EPHB2)	phosphorylation enrichment (Fes)	phosphorylation enrichment (c-Src)	phosphorylation enrichment (Jak2)	phosphorylation enrichment (Fer (mouse))
NIEPIYLNMLL [ATR_Y317_V316I]	0.63	0.424	0.705	15.1	6.92	1.85	8.37	10.7	7.79	6.85	13.8	14.5	3.2	6.6	1.42	13.3
NIFSFYLSRDP [CTSD_Y232]	1.64	1.09	1.52	0.619	0.461	0.85	0.4	0.348	0.697	0.333	0.551	0.506	1.14	0.409	0.951	0.528
NKFTTYLPRLP [C9orf24_Y126_YF]	1.02	0.824	0.927	0.482	0.507	0.568	0.477	0.47	0.503	0.42	0.437	0.445	0.784	0.425	0.666	0.36
NLNGKYNKPRA [ANGPTL3_Y417]	0.875	1.18	1.3	0.696	0.362	0.51	0.659	0.344	0.525	0.471	0.294	0.353	0.613	0.334	0.8	0.372
NRLTDYFELLL [BBS10_Y536_P539L_YF]	1.29	0.834	1.33	0.765	0.509	1.36	0.622	7.17	5	0.442	0.654	0.633	1.31	0.619	1.35	0.534
NSIGNYYKPWF [DHCR24_Y299]	2.39	1.09	1.14	14.1	1	1.14	0.568	5.3	4.33	8.27	14.5	15.2	0.774	0.69	9.63	0.52
NVADHYRVFKP [ATP6V0D2_Y271_G272R_YF]	0.624	0.397	0.842	0.686	0.418	0.708	0.391	0.459	0.608	0.644	0.404	0.361	0.616	0.471	0.582	0.404

Further lines, with some results ahead:

SH2 binding enrichment (SHP2-C SH2)	SH2 binding enrichment (c-Src SH2)	SH2 binding enrichment (Grb2 SH2)	Sequence	phosphorylation enrichment (c-Abl (mouse))	phosphorylation enrichment (Hck)	phosphorylation enrichment (AncSZ)	phosphorylation enrichment (Fyn)	phosphorylation enrichment (FGFR1)	phosphorylation enrichment (FGFR3)	phosphorylation enrichment (MERTK)	phosphorylation enrichment (EPHB1)	phosphorylation enrichment (EPHB2)	phosphorylation enrichment (Fes)	phosphorylation enrichment (c-Src)	phosphorylation enrichment (Jak2)	phosphorylation enrichment (Fer (mouse))
6.21	1.03	1.39	NFDRIYIYHLR [MYOF_Y1137_V1136I]	0.734	0.742	1.17	0.732	0.548	0.787	0.63	0.701	0.648	1.2	0.923	1.1	0.611
0.752	0.528	0.85	NFFDTYIKTCL [IQGAP2_Y1445_YF]	0.843	0.587	1.3	0.456	0.508	0.815	0.496	0.736	0.731	1.34	0.54	1.34	0.555
0.798	0.752	0.901	NHFKIYNPCAE [PTEN_Y68_L70P_YF]	0.809	0.56	0.816	0.564	0.458	0.676	0.452	0.494	0.518	0.996	0.474	0.807	0.442
0.822	0.672	1.03	NPQKSYLIRLF [WAS_Y83_F84L_YF]	0.523	0.407	0.768	0.398	0.439	0.696	0.413	0.462	0.484	0.957	0.38	0.681	0.448
0.43	0.485	0.835	NSNSDYVDVLP [SH2D1B_Y127]	0.743	0.735	2.46	0.628	3.73	2.95	0.54	4.08	2.82	1.33	0.598	1.11	0.884
0.738	0.533	0.741	NVKGIYAVGDV [GSR_Y371]	1.44	3.55	0.714	4.37	0.521	0.574	1.31	0.619	0.564	0.865	3.73	0.66	0.572
1.01	0.891	0.648	PADQAYSWFQH [NDST1_Y711_R709Q_YF]	0.58	1.36	1.7	1.38	5.17	4.33	7.11	1.3	0.926	2.91	2.41	0.855	26.6
0.572	0.976	0.949	PADRAYSWFQH [NDST1_Y711_YF]	0.645	0.466	1.14	0.833	1.84	1.14	4.22	0.543	0.67	1.43	0.868	1.03	17.8
0.546	0.833	0.699	PANMVYSTVEI [SLAMF7_Y304_T302M]	6.82	9.3	1.38	10.6	2.6	2.26	8.74	3.27	3.32	1.77	8.24	0.659	20.3
